Measurements as given in the supplement of paper PMC9170038.

Test system: MS2 coat protein
Assay: apparent KD of MS2 coat protein; higher = weaker reporter binding
Details: Eterna round: R107
Method: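 RNA-MaP round R107: designed RNA switches with theophylline, tryptophan, arginine or FMN aptamers are transcribed on-chip within common flanks. They are titrated with SNAP-549-labelled MS2 coat protein in RNA-MaP buffer (100 mM Tris pH 7.5, 80 mM KCl, 4 mM MgCl2), without ligand or with the indicated ligand. Median apparent KD per design.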

[1] = input ligand: theophylline 20 uM
[2] = input ligand: theophylline 2 mM
[3] = input ligand: tryptophan 2.4 mM

Sequence	apparent KD of MS2 coat protein (input ligand: arginine 13.2 mM)	apparent KD of MS2 coat protein [1]	apparent KD of MS2 coat protein [2]	apparent KD of MS2 coat protein [3]	apparent KD of MS2 coat protein (input ligand: none)
AGAUUCGACACGGCCGCCACUCGAGACGGAUUUCCGAGUGUCGAACAUGAGGAUCACCCAUGUCCGAGGACCGGGUGUUGAGUCU [XTryp B #10]	24.3 nM	42.8 nM	51.1 nM		
AGAUUCGACACGGCCGCCACUCGUGACGGAUUUCCGAGUGUCGAACAUGAGGAUCACCCAUGUCCGAGGACCGGGUGUUGAGUCU [XTryp B #12]	33.7 nM	43.8 nM	55.9 nM		
AGAUUCGACACGGCCGCCACUCGUGGAGGAUUUCCGAGUGUCGAACAUGAGGAUCACCCAUGUACGAGGACCGGGUGUUGAGUCU [XTryp B #14]	21.1 nM	43.4 nM	32.2 nM		
AGCACUGUGACGGCCGCCACUACAUAACAUGGGUGGUCAGGUUCAUUACAUGAGGAUCACCCAUGUAGGACCGGGUCUCAGUGCA [Omei Trp Exc B A v11]	12.1 nM	17.7 nM	12.6 nM		
AGCCACUCGAGUGAUCCUCACGAGUGGCAACGAGGACCGGUACGGCCGCCACUCGAAUAAACAUGAGGAUCACCCAUGUAAUAAU [T''-M-T'-T-MS2]	13.6 nM	152 nM	683 nM		
AGCCCUGUACUAGAUACCAGCUACAUGAGGAUCACCCAUGUGCGUCAAGACUGACUGUGUGGCCCUUGGCAGCUGCUCGCAUGUA [Exclusion - Theophylline B (Freestyle 1)]	50.6 nM	191 nM		168 nM	
AGCGCUAUGCAUGAUACCAGCUACAUGAGGAUCACCCAUGUGCGUCAGAAAUGACUGUGUAGCCCUUGGCAGCAUAAAGCAUGUA [Exclusion - Theophylline B (Freestyle 9)]	19.4 nM	24.1 nM		17.2 nM	
AGCGGAACGGAAGGGUCCCAAAAUUGUGAUACCAGCCUUGAAUCCGGCCCUUGGCAGCACAUGAGGAUCACCCAUGUACUGCGAU [Laanor]	11.2 nM	19.2 nM		12.8 nM	
AGCUCGACUCGCAGCUGGAUGCCCGCUUGCCGAGGACCGGUACGGCCGCCACUCGUCACUCGACAUGAGGAUCACCCAUGUGAUA [theeternabot_exclusion_MS2_Trp_A_32]	36.3 nM	136 nM	140 nM		
AGGAGACAUGAGGAUCACCCAUGUCCAGAUACCAGAAUGUCUUUGUUCCCUUGGCAGCUGUGGAAAUCUGACCUGCCUCGGUCUG [theeternabot_sameState_MS2_Theo_A_31]	14.6 nM	17.9 nM		15.2 nM	
AGUAGACACGCGGCCGCCACUUGAGGAUCACCCAGGUGGUGUGUACUUGAAAACAAGUGCACAUCAAGGACCGGGCGUGUCUACA [Omei Tryp B SS D v2]	12.9 nM	17.1 nM	13.9 nM	27.3 nM	
AGUUCCAGGUCGGCCGCCACUGGCAUGGCCGGUCCUCGGACUUACAUGAGGAUCACCCAUGUGAACAGGACCGGGACCGCAUGGG [Exclusion Tryptophan B GF 24]	26.1 nM	46.1 nM	57.2 nM		
AUAAAUAUAACCGAUACCAGCCUUAUACAUGAGGAUCACCCAUGUUAUGCUUCCUUUCUUGGCCCUUGGCAGCGGAAAUGGGUAA [SSTheo B #13]	36.2 nM	48.4 nM		44.8 nM	
AUAACAUGAGGAUCACCCAUGUAAGCUGAAGGAGCGCUGGAAACAGCAGGUAGGUCGCAGCGGCGACCUUCCUCAUGAAGGUCGC [(M1)-(M2)-(Arg1)-(Arg2)-(A)'-(M)'-(A)''_Design5]	19.2 nM	25.6 nM	17 nM	18.5 nM	14.2 nM
AUAAUGGGUAUCGGAUUAUCAUGGAAUGAUACCAGAUACUUAGAUAUCCCUUGGCAGCAUGAGGACAUGAGGAUCACCCAUGUAU [#03 Exclusion-TheophyllineA]	31.3 nM	56.9 nM		54.9 nM	
AUACAUGAGGAUCACCCAUGUGAUGGCCGGCGAGGACCGGUACGGCCGCCACUCGUGAUCCGUCCUGAAAGCAAAGCUUCCAGCA [Terion]	37.4 nM	273 nM	437 nM		
AUACCGAGUGAGUCGUGUUUCUUUUCAGAUACCAGACUUUUCGUUGUCCCUUGGCAGCUGUUUUACAUGAGGAUCACCCAUGUUG [#28 Exclusion-TheophyllineA]	16.3 nM	18.1 nM		15.2 nM	
AUAUAUACAUGAGGAUCACCCAUGUUAUUACGAGGACCGGUACGGCCGCCACUCGAUAGAGUAGAAGUAAAUUUUAAUUCAUGUA [JR_SSTryptoA_Sub007]	14.6 nM	15.7 nM	14.4 nM		
AUAUGAUCAUAUGAUACCAGAAAUGGUAUUCCUUUCUUUCUUACAUGAGGAUCACCCAUGUUCCCUUGGCAGCAUAUGAUCAUAU [ETHB #1]	90.7 nM	210 nM		153 nM	
AUAUUAAUCGGAAGGAGCGGUACAUGAGGAUCACCCAUGUGCGAAGCCAGCAGAUCCCGUUACCAGGUAGGUCGCCGAGUUAUGA [Begebe]	23.6 nM	39.8 nM	37.5 nM	30.7 nM	33 nM
AUAUUAAUCGGAAGGAGCGGUACAUGAGGAUCACCCAUGUGGUAAGCUAGCAGAUCCCGUUACCAGGUAGGUCGCCGAGUUAUGA [XArg-B17]	268 nM	474 nM	510 nM	216 nM	201 nM
AUCAUAAUAGACUCGUUAGAUUAUAUGGAACGAGGACCGGUACGGCCGCCACUCGUGAUGUACAUGAGGAUCACCCAUGUUAGCU [JR_Nu_SSTryptoA_Sub025]	15.2 nM	18.8 nM	17 nM		
AUCCAUAGCCGAAGGAGCGCAGUAGGAUGACAUGAGGAUCACCCAUGUGUGUGAUGUGGAUUGCAGGUAGGUCGCGGAGUGGGUU [Exclusion - Arginine B (Freestyle 7)]	101 nM	124 nM	134 nM	79.7 nM	65.2 nM
AUCGUACCUGAGGAUACCAGCAUGUGAUCAUAACAUGAGGAUCACCCAUGUAAUCAGUGAUGCCCUUGGCAGCUUAGUCGAUACA [Same State - Theophylline B (Freestyle 7)]	58.7 nM	101 nM		58.3 nM	
AUCGUACCUGAUGAUACCAGCAUGUGAUCGUAACAUGAGGAUCACCCAUGUGAUCAGUGAUGCCCUUGGCAGCAUGAUCGGUACA [Same State - Theophylline B (Freestyle 15)]	36.6 nM	35.8 nM		36.7 nM	
AUGCAUAGCACGGCCGCCACUCAAAUUAAACAUGAGGAUCACCCAUGUAACAUGGAUAAAAUAAAGAGGACCGGGUGAAAUGCAA [JR_SSTryptoB_Sub010]	26 nM	36.2 nM	33.7 nM		
AUGCAUGUCAGAAGGAGCGUCAGUAACAUGAGGAUCACCCAUGUAACAUUGAAUUCGAUGAGACAGGUAGGUCGCUGAAUAGUAA [JR_SSArginiB_Sub019]	26.4 nM	37.7 nM	35.9 nM	27.8 nM	30.6 nM
AUGUCGUUGAAUAUAGCGGCUUGGAGUGAUACCAGAAUGAUCCAAUUCCCUUGGCAGCAUUACAUGAGGAUCACCCAUGUUCCAG [SSTheo A #23]	24.1 nM	55.5 nM	89.6 nM	48.6 nM	37.1 nM
